Source: patent publication US20100095387A1, “METHODS AND REAGENTS FOR SCREENING NEW DRUGS AND FOR TREATING ION PUMP ASSOCIATED DISORDERS AND DISEASES” (priority 2005, published 2010)
Entries after “also recorded” stand apart in the source; their conditions may differ.

Tests used:
[1] = target: T1, α3 subunit of the Na+/K+-ATPase (Mus musculus, UniProt Q6PIC6); assay: Chemical cross-linking of agrin fragments to cortical neurons, immunoprecipitation and immunoblot; format: binding; conditions: immunoprecipitation with phosphotyrosine antibody mAb4G10
T1 construct: a 110 kDa band characteristic of the native α3Na+/K+-ATPase; endogenous in cells; host or cells: primary mouse cortical neurons, 10-16 days in culture
Method: Membrane impermeant chemical cross-linking agents BS^3 and DMA were used to stabilize the bond between agrin and its binding sites on cell surface membranes. Cultured neurons were washed briefly in PBS containing 10 mM EDTA followed by preincubation with one or more agrin fragment in PBS^2+ for 30 minutes at room temperature and then cooled on ice prior to addition of a 10× solution of cross-linking agent to a final concentration of 0.1 mM. The cross-linking reaction was allowed to proceed for 30 minutes after which any unreacted cross-linker was quenched and removed by washing with ice cold PBS^2+ containing 50 mM ethanolamine. For immunoblot analysis, cells were scraped into ice-cold TI buffer (20 mM Tris, pH 7.4; 10 mM EDTA; protease inhibitors (Sigma, P8340)) then Dounce homogenized and membrane fraction recovered by centrifugation. For the immunoprecipitation studies, cells were scraped and homogenized in TI buffer containing 150 mM NaCl and 0.5% Triton X-100. Cell extracts were cleared by centrifugation and aliquots of the detergent soluble fraction incubated with the appropriate antibody at 4° C. overnight. Antigen-antibody complexes were precipitated with either protein A or protein G and resuspended in SDS-PAGE sample buffer for immunoblot analysis.
Ligand induced phosphorylation is a common first step in membrane receptor activation and inhibition of tyrosine kinase activity blocks agrin signalling in central nervous system neurons. To determine if agrin induced phosphorylation of the putative agrin receptor, membranes from neurons cross-linked to C-Ag208 or C-Ag15, alone or in combination, were dissolved, in a detergent-containing buffer and aliquots immunoprecipitated with RAg1 or the phosphotyrosine antibody mAb4G10 (Upstate). Immunoprecipitated proteins were analyzed by immunoblotting with a monoclonal antibody (9E10.2, Invitrogen) against the COON-terminal myc tag on the agrin fragments.
To confirm the results of the mass spectrometry the ability of different α-subunit antibodies to recognize the putative agrin-Na^+/K^+-ATPase complex was tested. […]

α3Na+/K+-ATPase [2] = target: T2, α3Na+/K+-ATPase (Mus musculus, UniProt Q6PIC6); assay: Na+ imaging (SBFI-AM) of cultured cortical cells; format: cell-based
α3Na+/K+-ATPase [3] = target: T2, α3Na+/K+-ATPase; assay: Whole cell current clamp of cultured cortical neurons, channel blockers present; format: cell-based; conditions: fragment alone
cardiac myocytes = assay: Spontaneous contraction frequency of cultured cardiac myocytes; format: cell-based, mouse; conditions: Agrn+/− and Agrn−/− myocytes grown in fragment; listed as C-Ag208
Method: FIG. 17. Cardiac myocyte contraction is agrin dependent. Cardiac myocytes were prepared from hearts of individual embryos produced by heterozygous pairings. The genotype of cultures was determined by PCR analysis of tissue samples from each embryo. Myocytes were maintained in 199 medium containing 10% FCS as described (Mitcheson et al., 1998). At 5 days in culture, the frequency of spontaneous contractions was determined by counting contractions in myocytes from 5 random fields at 300× magnification for 30 seconds. Contraction frequency is dependent on Agrn gene dosage such that Agrn−/−>Agrn+/−>Agrn+/+. Addition of C-Ag208 to the growth medium rescues the Agrn mutant phenotype whereas C-Ag15 increased the contraction frequency of wild type myocytes to a level similar to Agrn−/− cells. Bars show mean±SEM for a minimum of 2 independent platings from 3 embryos, except for Agrn+/−treated with C-Ag208, which was a single plating of 2 embryos. All data were collected blind with respect to genotype and agrin treatment. *** p≦0.001. ANOVA with Bonferroni post-hoc pair-wise comparison.
Quantitative studies confirmed and extended these observations by showing that the frequency of myocyte contraction is dependent on agrin gene dose: Agrn−/− myocyte contraction frequency is about 2-fold higher and Agrn+/− 1.5-fold higher than Agrn+/+ myocytes (FIG. 17). To learn whether the effect of the Agrn mutation on myocyte contraction is a direct result of the loss of agrin expression the effects of growing the cells in media supplemented with C-Ag208, an active agrin fragment, or C-Ag15, the agrin antagonist was next examined.

agrin receptors = agrin receptors (Mus musculus, UniProt Q6PIC6); assay: Agrin receptor immunohistochemistry, binding of short agrin fragments to live cortical neurons
Method: The distribution of agrin receptors was studied using agrin deletion fragments as affinity probes. Neurons, plated on glass coverslips, were washed briefly (1-2 min) in cold PBS containing 10 mM EDTA followed by a second wash in cold PBS alone before incubation for 15 min at 4° C. with 1 pM recombinant mouse agrin in NBM. In some experiments, labeling with mouse agrin was performed in the presence of various concentrations of rat rC-Ag95y4z8 or rC-Agy0z0. Control cultures were treated with vector control protein or an equivalent volume of vehicle in which the recombinant agrin was dissolved. Cells were then washed in cold NBM, fixed for 40 min on ice in 4% PFA in PBS, then washed in PBS and blocked for 1 h in PBSB. Recombinant agrin was detected through the COOH-terminal 6× polyhistidine tag using an anti-his antibody (1:500; Invitrogen). In experiments where cells were double labeled for synaptophysin, the anti-synaptophysin:antiserum (1:400) was also added at this step. Incubations were performed overnight at 4° C. in PBSB, followed by labeling with fluorescein conjugated goat anti-mouse and Texas red labeled anti-rabbit antibodies as described in the previous paragraphs. In some experiments, the amount of mouse agrin bound was estimated by digital photomicrography using the public domain NIH Image program (http://rsb.info.nih.gov/nih-image/).

[4] = system: cultured cortical neurons; assay: Firing properties of cultured cortical neurons in normal external solution; format: cell-based, mouse; conditions: normal external solution
[5] = system: layer V neurons in acute cortical slices; assay: Whole cell current clamp of layer V neurons in acute cortical slices; format: cell-based, mouse

Row | Molecule | tyrosine phosphorylation of the cross-linked complex [1] | neuronal intracellular Na+ (α3Na+/K+-ATPase [2]; fragment or ouabain alone, neurons) | intracellular Na+ in non-neuronal cells (α3Na+/K+-ATPase [2]; non-neuronal cells) | effect on neuron membrane potential (α3Na+/K+-ATPase [3]) | contraction frequency (cardiac myocytes) | C-Ag20z8 labeling (agrin receptors; 1:100 molar ratio of C-Ag20z8 to rC-Agy4z8) | binding of C-Ag20z8, C-Ag20z0 and C-Ag15 (agrin receptors; large (500-fold molar) excess of rat agrin) | membrane potential [4] | action potentials ([5]; bath application of fragment alone) | membrane depolarization ([5]; bath application, slices from 6-11 day-old mice)
1 | C-Ag20z8: C-Ag20 isoform having the z8 splice variant, SEQ. ID NO. 2 (protein, Synthetically produced sequence) MDPRTYIEYLNAVTESELTNEIPAEKALQSNHFELTLRTEATQGWLVLWIGKAAERADYMALAIVDGHLQLSYDLASQPVVLRSTVKVNTNRWLRVRAHREHREGSLQVGNEAPVTSSSPLGATQLDTDGALWLGGLQKLPVGQPLPKAYGTGFVGCLRNVVGHRQLHLLEDAVTKPELRPCPTLNSKLGPEQKLISEEDLNSAVDHHHHHH | phosphorylated | rapid increase | unaffected | rapid and reversible depolarization | significant decrease; also recorded: rescues |  |  |  |  | 
2 | rC-Agy4z8: soluble 95-kD COOH-terminal fragment of rat agrin, active "neural" isoform (protein) AATGTTAAMATARATTVSRLPASSVTPRVYPSHTSRPVGRTTAPPTTRRPPTTATNMDRPRTPGHQQPSKSCDSQPCLHGGTCQDQDSGKGFTCSCTAGRGGSVCEKVQPPSMPAFKGHSFLAFPTLRAYHTLRLALEFRALETEGLLLYNGNARGKDFLALALLDGRVQFRFDTGSGPAVLTSLVPVEPGRWHRLELSRHWRQGTLSVDGETPVVGESPSGTDGLNLDTNLYVGGIPEEQVAMVLDRTSVGVGLKGCIRMLDINNQQLELSDWQRAAVQSSGVGECGDHPCLPNPCHGGALCQALEAGMFLCQCPPGRFGPTCADEKSPCQPNPCHGAAPCRVLSSGGAKCECPLGRSGTFCQTVLETAGSRPFLADFNGFSYLELKGLHTFERDLGEKMALEMVFLARGPSGLLLYNGQKTDGKGDFVSLALHNRHLEFCYDLGKGAAVIRSKEPIALGTWVRVFLERNGRKGALQVGDGPRVLGESPKSRKVPHTMLNLKEPLYIGGAPDFSKLARGAAVSSGFSGVIQLVSLRGHQLLTQEHVLRAVDVSPFADHPCTQALGNPCLNGGSCVPREATYECLCPGGFSGLHCEKGLVEKSVGDLETLAFDGRTYIEYLNAVIESPETLDSRALFSEKALQSNHFELSLRTEATQGLVLWIGKAAERADYMALAIVDGHLQLSYDLGSQPVVLRSTVKVNTNRWLRIRAHREHREGSLQVGNEAPVTGSSPLGATQLDTDGALWLGGLQKLPVGQALPKAYGTGFVGCLRDVVVGHRQLHLLEDAVTKPELRPCPTP |  |  |  |  |  | barely detectable | completely blocked |  |  | 
3 | C-Ag20z0: C-Ag20 isoform having the z0 splice variant, SEQ. ID NO. 1 (protein, Synthetically produced sequence) MDPRTYIEYLNAVTESEKALQSNHFELTLRTEATQGWLVLWIGKAAERADYMALAIVDGHLQLSYDLASQPVVLRSTVKVNTNRWLRVRAHREHREGSLQVGNEAPVTSSSPLGATQLDTDGALWLGGLQKLPVGQPLPKAYGTGFVGCLRNVVGHRQLHLLEDAVTKPELRPCPTLNSKLGPEQKLISEEDLNSAVDHHHHHH |  |  |  | rapid and reversible depolarization |  |  |  | rapidly depolarized | appearance of high frequency action potentials | 9.6±2.22 mV
